Source: patent publication US20230087785A1, “Leucine-Rich Repeat Kinase 2 Allosteric Modulators” (VIB VZW, priority 2020, published 2023)

How the values were obtained:
[1] = molecular target: T1, LRRK2 COR-B construct (C-terminal part of the COR domain), His6-MBP tagged (human, UniProt Q5S007 1672-1840); experiment: ELISA, purified Nb on coated domain constructs
T1 construct: also called (MBP-)COR-B; not shown: N-terminal His6-MBP-tag of pDEST-566
Source text: (§1) We recombinantly expressed and purified the RocCOR, Roc, COR-B and kinase-WD40 (K-WD40) domain constructs of LRRK2 (FIG. 7). Subsequently, we performed an ELISA in which all these domain constructs were coated in parallel next to each other in the same ELISA plate, and where we subsequently detected binding of the 42 purified Nbs. […] To enrich in Nbs directed against the Roc domain we specifically included a selection step with either Roc-GTPγS or Roc-GDP.

[2] = molecular target: T2, LRRK2 kinase-WD40 domain construct (human, UniProt Q5S007 1876-2527); experiment: ELISA, purified Nb on coated domain constructs
T2 construct: also called K-WD40; not shown: N-terminal His-tag (pFastBac)
T2 sequence: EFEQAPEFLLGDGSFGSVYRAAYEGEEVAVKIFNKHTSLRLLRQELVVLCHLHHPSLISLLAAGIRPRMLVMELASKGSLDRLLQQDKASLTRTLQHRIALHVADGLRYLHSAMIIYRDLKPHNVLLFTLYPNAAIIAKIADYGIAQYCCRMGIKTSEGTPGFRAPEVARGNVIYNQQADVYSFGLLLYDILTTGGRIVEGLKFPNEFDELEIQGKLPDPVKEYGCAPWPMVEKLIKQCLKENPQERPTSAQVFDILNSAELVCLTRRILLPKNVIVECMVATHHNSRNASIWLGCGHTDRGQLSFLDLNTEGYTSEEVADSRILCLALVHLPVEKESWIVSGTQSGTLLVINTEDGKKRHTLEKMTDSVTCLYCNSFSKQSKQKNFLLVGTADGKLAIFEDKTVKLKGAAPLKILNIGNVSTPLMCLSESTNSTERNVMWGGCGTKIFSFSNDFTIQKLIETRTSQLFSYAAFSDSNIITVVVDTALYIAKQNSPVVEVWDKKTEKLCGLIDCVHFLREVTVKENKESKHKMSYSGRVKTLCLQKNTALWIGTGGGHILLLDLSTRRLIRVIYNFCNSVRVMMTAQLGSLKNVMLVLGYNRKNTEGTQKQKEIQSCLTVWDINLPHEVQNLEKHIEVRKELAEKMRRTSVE
Source text: as §1

[3] = molecular target: T3, LRRK2 RocCOR domain construct (human, UniProt Q5S007 1334-1840); experiment: ELISA, purified Nb on coated domain constructs
T3 construct: A second construct (residues 1293-1840, N-terminal His6-MBP) was used in certain screening experiments; not shown: N-terminal Twin-Strep-tag; C-terminal His10-tag
T3 sequence: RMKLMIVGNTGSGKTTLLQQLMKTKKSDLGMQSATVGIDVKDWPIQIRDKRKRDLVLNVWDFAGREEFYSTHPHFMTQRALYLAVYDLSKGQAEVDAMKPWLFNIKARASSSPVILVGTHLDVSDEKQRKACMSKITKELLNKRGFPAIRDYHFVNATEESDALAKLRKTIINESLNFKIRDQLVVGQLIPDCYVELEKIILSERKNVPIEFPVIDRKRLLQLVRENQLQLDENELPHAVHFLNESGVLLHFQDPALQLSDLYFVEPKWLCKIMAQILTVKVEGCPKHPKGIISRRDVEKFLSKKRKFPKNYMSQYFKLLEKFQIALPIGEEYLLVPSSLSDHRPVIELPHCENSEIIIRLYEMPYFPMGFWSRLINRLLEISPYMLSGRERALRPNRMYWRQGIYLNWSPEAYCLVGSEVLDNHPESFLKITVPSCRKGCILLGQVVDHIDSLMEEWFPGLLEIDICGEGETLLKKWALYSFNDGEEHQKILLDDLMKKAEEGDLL
Source text: as §1

[4] = molecular target: T4, LRRK2 Roc domain construct (human, UniProt Q5S007 1329-1520); experiment: ELISA, purified Nb on coated domain constructs
T4 construct: not shown: N-terminal His6-tag of pET-28a
T4 sequence: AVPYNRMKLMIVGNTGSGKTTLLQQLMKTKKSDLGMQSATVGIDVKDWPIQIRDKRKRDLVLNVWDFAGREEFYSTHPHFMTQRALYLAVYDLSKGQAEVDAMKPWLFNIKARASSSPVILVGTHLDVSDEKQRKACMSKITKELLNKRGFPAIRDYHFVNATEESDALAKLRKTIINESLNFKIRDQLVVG
Source text: as §1

[5] = molecular target: T5, Full-length human Leucine-rich repeat kinase 2 (LRRK2), N-terminal Strep/Flag (SF) tagged (human, UniProt Q5S007 1-2527); experiment: MST; LRRK2 titrated to m-TAMRA-labelled Nb, 500 µM GDP
T5 construct: Purified from HEK293T cells in presence of GDP or GTPγS; also called FL LRRK2; FL-LRRK2
T5 sequence (Q5S007 other isoform, or with tags, fused parts or gaps limits assumed): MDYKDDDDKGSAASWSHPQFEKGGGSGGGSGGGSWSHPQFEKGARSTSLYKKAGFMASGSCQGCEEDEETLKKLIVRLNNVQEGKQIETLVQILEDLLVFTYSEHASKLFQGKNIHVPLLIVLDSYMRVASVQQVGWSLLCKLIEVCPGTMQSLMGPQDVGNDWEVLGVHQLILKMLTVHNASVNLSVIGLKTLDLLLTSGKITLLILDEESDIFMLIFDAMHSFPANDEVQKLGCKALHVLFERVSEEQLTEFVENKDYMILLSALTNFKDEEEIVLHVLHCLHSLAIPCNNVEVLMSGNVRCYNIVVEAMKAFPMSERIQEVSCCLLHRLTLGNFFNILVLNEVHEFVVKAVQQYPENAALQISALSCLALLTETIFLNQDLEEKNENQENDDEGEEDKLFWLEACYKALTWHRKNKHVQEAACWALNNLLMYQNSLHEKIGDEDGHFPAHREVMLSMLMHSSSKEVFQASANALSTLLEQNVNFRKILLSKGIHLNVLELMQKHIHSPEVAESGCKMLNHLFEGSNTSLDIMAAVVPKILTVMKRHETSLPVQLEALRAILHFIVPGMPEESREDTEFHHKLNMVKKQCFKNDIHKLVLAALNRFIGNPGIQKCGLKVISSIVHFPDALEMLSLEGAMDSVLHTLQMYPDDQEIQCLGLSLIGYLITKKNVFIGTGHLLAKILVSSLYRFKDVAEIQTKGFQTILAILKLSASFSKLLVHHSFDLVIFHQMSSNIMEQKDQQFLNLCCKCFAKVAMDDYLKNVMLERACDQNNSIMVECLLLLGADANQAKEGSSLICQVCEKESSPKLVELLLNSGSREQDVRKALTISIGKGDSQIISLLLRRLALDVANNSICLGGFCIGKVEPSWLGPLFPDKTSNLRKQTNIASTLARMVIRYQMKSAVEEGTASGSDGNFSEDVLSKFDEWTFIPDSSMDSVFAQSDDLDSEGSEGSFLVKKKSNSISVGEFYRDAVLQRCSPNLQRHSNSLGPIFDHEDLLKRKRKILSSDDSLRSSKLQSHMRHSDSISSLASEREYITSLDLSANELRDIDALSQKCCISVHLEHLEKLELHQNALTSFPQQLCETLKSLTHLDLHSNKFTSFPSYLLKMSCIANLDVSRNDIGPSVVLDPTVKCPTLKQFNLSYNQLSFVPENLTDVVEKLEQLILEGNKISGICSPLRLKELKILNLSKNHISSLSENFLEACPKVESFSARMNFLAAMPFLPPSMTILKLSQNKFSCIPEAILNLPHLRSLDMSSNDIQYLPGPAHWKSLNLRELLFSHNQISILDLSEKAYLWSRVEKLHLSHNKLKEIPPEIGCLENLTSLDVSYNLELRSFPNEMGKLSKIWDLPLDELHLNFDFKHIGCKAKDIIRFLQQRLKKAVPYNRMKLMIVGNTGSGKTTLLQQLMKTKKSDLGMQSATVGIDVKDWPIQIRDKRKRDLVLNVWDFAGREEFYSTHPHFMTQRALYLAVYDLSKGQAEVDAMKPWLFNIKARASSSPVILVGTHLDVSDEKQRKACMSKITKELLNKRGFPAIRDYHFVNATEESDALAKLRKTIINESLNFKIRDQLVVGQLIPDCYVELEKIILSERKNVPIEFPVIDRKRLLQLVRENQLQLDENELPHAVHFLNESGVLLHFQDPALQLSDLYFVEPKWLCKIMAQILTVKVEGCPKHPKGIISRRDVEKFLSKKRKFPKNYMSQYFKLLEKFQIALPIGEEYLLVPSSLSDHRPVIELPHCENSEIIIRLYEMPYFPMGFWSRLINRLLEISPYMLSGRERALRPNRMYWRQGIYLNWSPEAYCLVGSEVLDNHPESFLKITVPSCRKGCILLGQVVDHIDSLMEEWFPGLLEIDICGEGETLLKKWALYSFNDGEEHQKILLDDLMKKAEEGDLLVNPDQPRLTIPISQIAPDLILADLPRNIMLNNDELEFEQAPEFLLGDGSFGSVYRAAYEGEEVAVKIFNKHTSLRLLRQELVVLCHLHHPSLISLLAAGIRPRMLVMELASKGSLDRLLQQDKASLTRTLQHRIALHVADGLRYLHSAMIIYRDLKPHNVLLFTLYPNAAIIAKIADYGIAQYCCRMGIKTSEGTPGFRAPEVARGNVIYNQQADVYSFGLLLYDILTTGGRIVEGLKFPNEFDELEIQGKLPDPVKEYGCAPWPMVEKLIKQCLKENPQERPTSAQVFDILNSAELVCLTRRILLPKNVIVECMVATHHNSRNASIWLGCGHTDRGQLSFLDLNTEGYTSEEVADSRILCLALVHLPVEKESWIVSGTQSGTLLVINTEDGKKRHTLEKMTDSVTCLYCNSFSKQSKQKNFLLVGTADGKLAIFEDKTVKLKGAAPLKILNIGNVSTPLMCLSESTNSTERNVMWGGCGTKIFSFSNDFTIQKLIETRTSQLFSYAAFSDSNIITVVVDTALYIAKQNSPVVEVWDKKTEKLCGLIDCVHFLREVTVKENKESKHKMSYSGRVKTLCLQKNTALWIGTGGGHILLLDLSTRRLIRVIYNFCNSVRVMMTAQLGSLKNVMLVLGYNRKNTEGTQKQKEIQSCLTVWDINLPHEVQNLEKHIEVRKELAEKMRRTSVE
Method: Microscale thermophoresis (MST) experiments were performed for determining equilibrium binding affinities (KD) of Nbs binding to FL-LRRK2. Therefore, Nb were site-specifically labelled at their C-terminus with m-TAMRA, using Sortase-mediated peptide exchange. The Nbs were recloned into a pHEN29 vector which is subsequently used to express and purify the Nbs with a C-terminal LPETGG-His₆-EPEA tag. Exchange of the latter peptide with an m-TAMRA-labeled GGGYK peptide (GenicBio, Shanghai, China) was performed using Sortase, and unlabeled Nb and unincorporated peptide were removed using a Ni-NTA and SEC purification step, respectively. […] After incubation at 4° C. for 30 mins, samples were loaded in capillaries and measurements were performed at 25° C. using 50-70% LED power and 80% laser intensity (laser on-time: 30 s, laser off-time: 5 s). All experiments were performed in triplicate.

[6] = molecular target: T5, Full-length human Leucine-rich repeat …; experiment: BLI; Nb on LRRK2 trapped on streptavidin sensor via biotinylated Nb40; steady-state fit
Method: To determine the binding affinity (dissociation constant KD) of the ten Nbs for LRRK2, two methods were used in parallel: microscale thermophoresis (MST) and bio-layer interferometry (BLI). For the MST experiment, we site-specifically labeled the ten Nbs with a m-TAM RA fluorophore at its C-terminus, using sortase-mediated coupling, and then titrated increasing amounts of full-length LRRK2 to these Nbs (FIGS. 13A-13E).
Biolayer interferometry (BLI) measurements were performed using an Octet Red96 (Forte Bio, Inc.) system in a buffer containing 50 mM HEPES pH 8.0, 150 mM NaCl, 10 mM MgCl₂, 5% glycerol, 0.1% BSA, 0.05% Tween, at 25° C. and with shaking speed 1000 rpm. […] The biotinylated Nbs were first loaded on pre-equilibrated SA biosensors at a concentration of 5 μg/mL. This Nb-loaded sensor was then used to trap FL-LRRK2 from a 50 nM LRRK2 solution. […] All experiments were performed in triplicate.

[7] = molecular target: T1, LRRK2 COR-B construct (C-terminal part …); experiment: ELISA, antigen coated on the plate, purified Nb detected via its EPEA tag
Source text: as §1

[8] = molecular target: T2, LRRK2 kinase-WD40 domain construct; experiment: as above
Source text: as §1

[9] = molecular target: T3, LRRK2 RocCOR domain construct; experiment: as above
Source text: as §1

[10] = molecular target: T4, LRRK2 Roc domain construct; experiment: as above
Source text: as §1

B1: Nb36 (CA14130) (VHH)
VHH: QVQLVESGGGLVQPGGSLRLSCAASGSIRSITTSAWFRQPPGKQRELVAGISSGTSTNYADSVKGRFTISRDNAKNTVYLQMNSLKPEDTAVYYCHVWISGTWYSGQGTQVTVSS
Q: Which results are given for B1?
A: binding result [1]: no binding; binding result [2]: no binding; binding result [3]: no binding; binding result [4]: no binding; Kd [5]: 78 nM; Kd [6]: 51 nM

B2: Nb38 (CA14133) (VHH)
VHH: QVQLVESGGGLVQPGGSLRLSCAASGSIRSIATSAWYRQPPGKQRELVAGISSGTTTNYADSVKGRFTISRDNAKNTVYLQMNSLKPEDTAVYYCHAWISGTWISGQGTQVTVSS
Q: Which results are given for B2?
A: binding result [1]: no binding; binding result [2]: no binding; binding result [3]: no binding; binding result [4]: no binding; Kd [5]: 48 nM; Kd [6]: 86 nM

B3: Nb35 (CA16072) (VHH)
VHH: QVQLVESGGGLVQPGGSLRLSCAASGFPFSTYYMSWVRQAPGKGLEWVSAISPGGDTAYADSVKDRFTISRDSAKNTVYLQMSSLKPEDTAVYYCAAVRFLRAPDLTEKRLYEYWGQGTQVTVSS
Q: Does B3 bind [7]?
A: Result: no binding (tested: not given)

Q: Does B3 bind [8]?
A: Result: no binding (tested: not given)

Q: Does B3 bind [9]?
A: Result: no binding (tested: not given)

B4: Nb3 (CA12614) (VHH)
VHH: QVQLVESGGGLVQPGGSLRLSCAASGSIFRRNAMGWYRQVTGKERELVAGITSGGYTNYRDFVKGRFTISRDNAKNTVYLQMNNLKPEDTAVYYCNLLSEMLQTVWGQGTQVTVSS
Q: Does B4 bind [8]?
A: Result: no binding (tested: not given)

Q: Does B4 bind [10]?
A: Result: no binding (tested: not given)

B5: Nb22 (CA13611) (VHH)
VHH: QVQLVESGGGLVQAGGSLRLSCAASGRTFSSYTMGWFRQAPGKEREFVAAIRWSGGSTYYADSVKGRFTISRDNAKNTVYLQMNSLKPEDTAVYYCAASDRGGFIATSGGWMDYWGKGTQVTVSS
Q: B5 was tested. Which Kd [5] did it give?
A: Its Kd is 145 nM.

Q: Does B5 bind [7]?
A: Result: no binding (tested: not given)

Q: Does B5 bind [9]?
A: Result: no binding (tested: not given)

Q: Does B5 bind [10]?
A: Result: no binding (tested: not given)

Q: What about the Kd [6] of the same binder?
A: The Kd was 76 nM.

B6: Nb39 (CA14134) (VHH)
VHH: QVQLVESGGGLVQAGGSLRLSCRASGGTFSTYAMGWFRQVPGKERETVAAVKWSGDMTYYADSVKGRFTISRDNAKNTVYLQMNSLRPEDTAVYYCAARRGLSYYRGPSEYDYWGQGTQVTVSS
Q: Does B6 bind [1]?
A: Result: no binding

Q: Does B6 bind [2]?
A: Result: no binding

Q: Does B6 bind [3]?
A: Result: no binding

Q: Does B6 bind [4]?
A: Result: no binding

Q: What about the Kd [5] of the same binder?
A: Its Kd is 79 nM.

Q: What about the Kd [6] of the same binder?
A: Its Kd is 21 nM.

B7: Nb37 (CA14131) (VHH)
VHH: QVQLVESGGGLVQPGGSLRLSCAASGSVFSTNTMAWFRQAPGKQREWVGGITPGGFTNYINSVKGRFTISRDNANNTIYLQMSSLRPEDTAVYYCNTLSRMALWGQGTQVTVSS
Q: Does B7 bind [1]?
A: Result: no binding

Q: Does B7 bind [2]?
A: Result: no binding

Q: Does B7 bind [3]?
A: Result: no binding

Q: Does B7 bind [4]?
A: Result: no binding

B8: Nb17 (CA13606) (VHH)
VHH: QVQLVESGGGLVQPGGSLRLSCAASGSNIGYMAWYRQAPGSQRELVARIASGGSANYADSVKGRFTISRDNVKNTVYLHMNSLKPVDTAVYYCHADAWYNSRWSDYWGQGTQVTVSS
Q: Does B8 bind [1]?
A: Result: no binding

Q: Does B8 bind [2]?
A: Result: no binding

Q: Does B8 bind [3]?
A: Result: no binding

Q: Does B8 bind [4]?
A: Result: no binding

Q: What about the Kd [5] of the same binder?
A: The Kd was 67 nM.

Q: What about the Kd [6] of the same binder?
A: The Kd was 11 nM.
